Test results reported in patent publication US20180172692.

How the values were obtained:
β10* = target: T1, β10*
T1 chain: VSGWRLFKKIS

β9 = target: T2, β9
T2 chain: GSMLFRVTINS

B1: Δ11S (protein)
chain: MVFTLEDFVGDWEQTAAYNLDQVLEQGGVSSLLQNLAVSVTPIQRIVRSGENALKIDIHVIIPYEGLSADQMAQIEEVFKVVYPVDDHHFKVILPYGTLVIDGVTPNMLNYFGRPYEGIAVFDGKKITVTGTLWNGNKIIDERLITPD
luminescence (furimazine substrate), fragments each at 1 µM (β10*): the mixture of all three components is the only combination that produced significant luminescence
luminescence (furimazine substrate), fragments each at 1 µM (β9): the mixture of all three components is the only combination that produced significant luminescence
